Source: IntAct's records for PubMed 26751287

B1: Transmembrane glycoprotein NMB (Homo sapiens), Q14956-1 (parent)
chain: MECLYYFLGFLLLAARLPLDAAKRFHDVLGNERPSAYMREHNQLNGWSSDENDWNEKLYPVWKRGDMRWKNSWKGGRVQAVLTSDSPALVGSNITFAVNLIFPRCQKEDANGNIVYEKNCRNEAGLSADPYVYNWTAWSEDSDGENGTGQSHHNVFPDGKPFPHHPGWRRWNFIYVFHTLGQYFQKLGRCSVRVSVNTANVTLGPQLMEVTVYRRHGRAYVPIAQVKDVYVVTDQIPVFVTMFQKNDRNSSDETFLKDLPIMFDVLIHDPSHFLNYSTINYKWSFGDNTGLFVSTNHTVNHTYVLNGTFSLNLTVKAAAPGPCPPPPPPPRPSKPTPSLATTLKSYDSNTPGPAGDNPLELSRIPDENCQINRYGHFQATITIVEGILEVNIIQMTDVLMPVPWPESSLIDFVVTCQGSIPTEVCTIISDPTCEITQNTVCSPVDVDEMCLLTVRRTFNGSGTYCVNLTLGDDTSLALTSTLISVPDRDPASPLRMANSALISVGCLAIFVTVISLLVYKKHKEYNPIENSPGNVVRSKGLSVFLNRAKAVFFPGNQEKDPLLKNQEFKGVS

Variants of: B1
Settings: with ptk6_human PTK6, Q13882

Variant | effect of a mutation on the interaction
MECLYYFLGFLLLAARLPLDAAKRFHDVLGNERPSAYMREHNQLNGWSSDENDWNEKLYPVWKRGDMRWKNSWKGGRVQAVLTSDSPALVGSNITFAVNLIFPRCQKEDANGNIVYEKNCRNEAGLSADPYVYNWTAWSEDSDGENGTGQSHHNVFPDGKPFPHHPGWRRWNFIYVFHTLGQYFQKLGRCSVRVSVNTANVTLGPQLMEVTVYRRHGRAYVPIAQVKDVYVVTDQIPVFVTMFQKNDRNSSDETFLKDLPIMFDVLIHDPSHFLNYSTINYKWSFGDNTGLFVSTNHTVNHTYVLNGTFSLNLTVKAAAPGPCPPPPPPPRPSKPTPSLATTLKSYDSNTPGPAGDNPLELSRIPDENCQINRYGHFQATITIVEGILEVNIIQMTDVLMPVPWPESSLIDFVVTCQGSIPTEVCTIISDPTCEITQNTVCSPVDVDEMCLLTVRRTFNGSGTYCVNLTLGDDTSLALTSTLISVPDRDPASPLRMANSALISVGCLAIFVTVISLLVYKKHKEFNPIENSPGNVVRSKGLSVFLNRAKAVFFPGNQEKDPLLKNQEFKGVS [Y525F] | disrupting interaction strength
